Assay [1] deals with 4E10-specific MPER peptide (gp41 residues 671-683) (HIV-1). The assay is described as follows: ELISA, peptide coated at 2 ug/ml. On the technique in general: In an ELISA, binding on a coated surface is turned into a signal by an enzyme label.
For assay [2], the target named is full MPER peptide (ELISA; gp41 residues 656-683 with lysine triplicates) (HIV-1). The assay is described as follows: ELISA, peptide coated at 2 ug/ml.
For assay [3], the target named is Z13e1-specific peptide (gp41 residues 666-677) (HIV-1). The assay is described as follows: ELISA, peptide coated at 2 ug/ml.
Assay [4] has as its target T1, Sjogren's syndrome antigen B (UniProt P05455 1-408).
T1 construct: Commercial bead antigen; also called SSB; SS-B/La
T1 sequence: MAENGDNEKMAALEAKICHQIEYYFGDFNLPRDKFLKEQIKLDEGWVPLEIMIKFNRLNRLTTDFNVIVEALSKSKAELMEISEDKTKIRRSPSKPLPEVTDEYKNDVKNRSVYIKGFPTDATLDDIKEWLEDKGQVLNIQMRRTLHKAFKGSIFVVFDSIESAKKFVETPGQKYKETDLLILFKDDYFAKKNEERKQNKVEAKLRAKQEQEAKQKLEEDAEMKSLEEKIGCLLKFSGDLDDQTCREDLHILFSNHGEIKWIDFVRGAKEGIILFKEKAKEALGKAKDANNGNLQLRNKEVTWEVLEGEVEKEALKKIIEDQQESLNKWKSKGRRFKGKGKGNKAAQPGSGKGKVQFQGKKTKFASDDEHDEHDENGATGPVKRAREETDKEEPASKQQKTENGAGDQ
The assay is described as follows: Luminex AtheNA Multi-Lyte ANA bead assay.

Assay [5] deals with T2, scleroderma 70 antigen (UniProt P11387 2-765).
T2 construct: Commercial bead antigen; also called Scl 70; Sc1 70
T2 sequence: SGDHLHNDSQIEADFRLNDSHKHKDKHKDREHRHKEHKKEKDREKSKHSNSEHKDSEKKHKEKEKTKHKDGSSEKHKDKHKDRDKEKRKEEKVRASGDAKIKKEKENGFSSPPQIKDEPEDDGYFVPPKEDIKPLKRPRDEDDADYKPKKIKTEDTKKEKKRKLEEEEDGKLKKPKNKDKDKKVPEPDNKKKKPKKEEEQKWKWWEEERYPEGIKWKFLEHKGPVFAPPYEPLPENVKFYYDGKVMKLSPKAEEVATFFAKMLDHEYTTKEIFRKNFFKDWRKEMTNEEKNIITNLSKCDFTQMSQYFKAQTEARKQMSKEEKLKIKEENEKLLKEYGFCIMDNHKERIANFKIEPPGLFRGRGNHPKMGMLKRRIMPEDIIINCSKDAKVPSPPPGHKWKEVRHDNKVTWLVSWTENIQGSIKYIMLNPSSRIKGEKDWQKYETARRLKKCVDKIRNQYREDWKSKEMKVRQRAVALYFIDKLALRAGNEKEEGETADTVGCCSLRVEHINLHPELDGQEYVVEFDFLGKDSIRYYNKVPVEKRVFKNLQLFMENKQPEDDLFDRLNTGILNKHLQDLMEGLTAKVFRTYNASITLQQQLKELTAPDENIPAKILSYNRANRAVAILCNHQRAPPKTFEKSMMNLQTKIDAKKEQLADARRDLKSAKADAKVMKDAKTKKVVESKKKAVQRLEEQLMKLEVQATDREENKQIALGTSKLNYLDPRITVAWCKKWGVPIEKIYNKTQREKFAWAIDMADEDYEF
The assay is described as follows: Luminex AtheNA Multi-Lyte ANA bead assay.

The target of assay [6] is T3, Jo1 antigen (UniProt P12081 2-509).
T3 construct: Commercial bead antigen
T3 sequence: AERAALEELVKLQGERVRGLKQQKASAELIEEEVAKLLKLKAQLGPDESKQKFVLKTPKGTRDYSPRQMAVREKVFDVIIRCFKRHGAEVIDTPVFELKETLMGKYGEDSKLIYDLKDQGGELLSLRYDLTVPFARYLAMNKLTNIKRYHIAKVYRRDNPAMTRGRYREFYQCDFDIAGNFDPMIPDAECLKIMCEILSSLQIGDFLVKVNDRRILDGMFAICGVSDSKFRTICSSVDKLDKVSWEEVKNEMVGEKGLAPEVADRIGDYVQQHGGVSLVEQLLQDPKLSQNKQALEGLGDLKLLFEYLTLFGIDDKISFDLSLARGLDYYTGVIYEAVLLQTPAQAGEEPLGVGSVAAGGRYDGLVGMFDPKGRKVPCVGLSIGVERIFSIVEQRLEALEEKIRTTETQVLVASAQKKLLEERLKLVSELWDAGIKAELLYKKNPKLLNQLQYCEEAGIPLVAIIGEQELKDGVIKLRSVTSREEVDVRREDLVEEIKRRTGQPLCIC
The assay is described as follows: Luminex AtheNA Multi-Lyte ANA bead assay.

Assay [7] deals with T4, centromere B (UniProt P07199 2-599).
T4 construct: Commercial bead antigen; also called CentrB
T4 sequence: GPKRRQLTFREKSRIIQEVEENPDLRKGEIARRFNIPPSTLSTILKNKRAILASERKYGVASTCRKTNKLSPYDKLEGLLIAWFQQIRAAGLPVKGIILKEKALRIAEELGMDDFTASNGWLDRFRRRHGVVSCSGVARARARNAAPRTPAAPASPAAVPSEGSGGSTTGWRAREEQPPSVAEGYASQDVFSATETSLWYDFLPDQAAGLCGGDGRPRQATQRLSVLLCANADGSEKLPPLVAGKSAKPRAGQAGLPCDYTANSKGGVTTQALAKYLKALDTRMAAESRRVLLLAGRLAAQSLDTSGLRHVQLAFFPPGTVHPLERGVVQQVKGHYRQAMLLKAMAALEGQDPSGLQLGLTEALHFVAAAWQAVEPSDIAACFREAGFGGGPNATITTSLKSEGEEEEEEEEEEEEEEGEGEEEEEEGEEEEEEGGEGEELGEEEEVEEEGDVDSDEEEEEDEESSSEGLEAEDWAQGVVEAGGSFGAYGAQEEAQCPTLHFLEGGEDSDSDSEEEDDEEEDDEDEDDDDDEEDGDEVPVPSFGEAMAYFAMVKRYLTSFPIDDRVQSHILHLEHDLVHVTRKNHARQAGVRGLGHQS
The assay is described as follows: Luminex AtheNA Multi-Lyte ANA bead assay.

The results in this text go back to patent US20140348785A1 (US Dept. of Health and Human Services, published 2014).

B1: 10E8 monoclonal antibody (full-length IgG) (antibody, V domains shown)
VH: EVQLVESGGGLVKPGGSLRLSCSASGFDFDNAWMTWVRQPPGKGLEWVGRITGPGEGWSVDYAAPVEGRFTISRLNSINFLYLEMNNLRMEDSGLYFCARTGKYYDFWSGYPPGEEYFQDWGRGTLVTVSS
VL: SYELTQETGVSVALGRTVTITCRGDSLRSHYASWYQKKPGQAPILLFYGKNNRPSGVPDRFSGSASGNRASLTISGAQAEDDAEYYCSSRDKSGSRLSVFGGGTKLTVL
notes: also called mAb 10E8; wild-type 10E8
As for B1, the binding result is “binds” in assay [1]; “binds” in assay [2]; “no binding” in assay [3]; “no binding (tested: 50 ug/ml (highest concentration assayed))” in assay [4]; “no binding (tested: 50 ug/ml (highest concentration assayed))” in assay [5]; “no binding (tested: 50 ug/ml (highest concentration assayed))” in assay [6]. Moreover, the binding result in assay [7] is given as “no binding (tested: 50 ug/ml (highest concentration assayed))”.
